B1: Immunoglobulin heavy constant mu (protein)
chain: GSASAPTLFPLVSCENSPSDTSSVAVGCLAQDFLPDSITFSWKYKNNSDISSTRGFPSVLRGGKYAATSQVLLPSKDVMQGTDEHVVCKVQHPNGNKEKNVPLPVIAELPPKVSVFVPPRDGFFGNPRKSKLICQATGFSPRQIQVSWLREGKQVGSGVTTDQVQAEAKESGPTTYKVTSTLTIKESDWLGQSMFTCRVDHRGLTFQQNASSMCVPDQDTAIRVFAIPPSFASIFLTKSTKLTCLVTDLTTYDSVTISWTRQNGEAVKTHTNISESHPNATFSAVGEASICEDDWNSGERFTCTVTHTDLPSPLKQTISRPKGVALHRPDVYLLPPAREQLNLRESATITCLVTGFSPADVFVQWMQRGQPLSPEKYVTSAPMPEPQAPGRYFAHSILTVSEEEWNTGETYTCVVAHEALPNRVTERTVDKSTGKPTLYNVSLVMSDTAGTCY
B2: ovalbumin: native chicken ovalbumin control (protein)
chain: GSIGAASMEFCFDVFKELKVHHANENIFYCPIAIMSALAMVYLGAKDSTRTQINKVVRFDKLPGFGDSIEAQCGTSVNVHSSLRDILNQITKPNDVYSFSLASRLYAEERYPILPEYLQCVKELYRGGLEPINFQTAADQARELINSWVESQTNGIIRNVLQPSSVDSQTAMVLVNAIVFKGLWEKAFKDEDTQAMPFRVTEQESKPVQMMYQIGLFRVASMASEKMKILELPFASGTMSMLVLLPDEVSGLEQLESIINFEKLTEWTSSNVMEERKIKVYLPRMKMEEKYNLTSVLMAMGITDVFSSSANLSGISSAESLKISQAVHAAHAEINEAGREVVGSAEAGVDAASVSEEFRADHPFLFCIKHIATNAVLFFGRCVSP

What was measured:
[1] = molecular target: T1, BiP-Sepharose (Homo sapiens, UniProt P11021); assay: BiP-Sepharose extraction of proteins from patient plasma, serum, synovial fluid and mass-spectrometric identification; assay type: binding; settings: Sample B6: eluate of BiP-Sepharose contacted with RA patient IV synovial fluid
T1 construct: The human BiP gene except the signal peptide encoding region was obtained from Geneart (Germany); linker […]; made in house; host or cells: HEK 293E cells, transient transfection, PABC674 vector; secreted into the medium
Method: BiP was coated on CNBr-Sepharose (GE-Healthcare, Amersham Biosciences). Immobilization of BiP was performed essentially as described elsewhere in this application for NHS-Sepharose. CNBr-matrix was dissolved at 200 mg/ml in 1 mM HCl and treated the same as the NHS-matrix, except for an additional 5 minutes activation step in 1 mM HCl on a roller device before washing in this buffer. BiP was diluted in immobilization buffer (50 mM NaCl and 40 mM NaHCO3) to a concentration of 820 μg/ml. A total volume of 2 ml BiP solution (1640 μg BiP) was incubated with 360 mg beads. Negative control matrix was exposed to immobilization buffer, only. After overnight immobilization matrix was blocked with Tris and washed.
Six samples were incubated with the BiP-Sepharose, IgIV-Sepharose and the control-Sepharose: Normal pooled plasma, plasma of a patient I or of a patient II, with AL amyloidosis, serum of a patient III with RA (Rheumatoid Factor (RF) titer 682), control serum and synovial fluid of a patient IV with RA (RF titer 23). All samples were diluted 20× in HBS and applied to 200 μl beads in two volumes of 500 μl. One volume was incubated for 4 h at RT and supernatant was discarded after centrifugation (2 minutes at 1400 rpm). Subsequently, the second volume was applied to the same matrix and incubated overnight on a roller device at 4° C. […] To collect the eluates, the matrices were centrifuged and the two eluates were pooled for each sample.
Protein digests were desalted as described (Rappsilber et al., 2003), vacuum dried and dissolved in 2.5% formic acid.
For analysis of peptide mixtures, an Agilent 1100 HPLC system (Agilent Technologies) connected to a Thermo Finnigan LTQ-MS (Thermo Electron, Bremen, Germany) was used. Protein digests were injected on a trap column (Reprosil C18 RP (Dr Maisch, Germany), 20 mm×100 μm I.D.) at 5 μl/minute. Subsequently, the peptides were transferred with a split-reduced flow rate of 100 nL/minute solvent A (0.1 M acetic acid) on the analytical column (Reprosil C18 RP, 20 cm×50 μm I.D.). […] The column effluent was directly introduced into the ESI source of the mass spectrometer via a butt-connected nano-ESI emitter (New Objectives, Woburn, Mass.). The mass spectrometer was operated in the positive ion mode and parent ions were selected for fragmentation in data-dependent mode.
After mass spectrometric measurements, peak lists were generated using BioWorks software (Thermo Electron, Bremen, Germany). Protein identification was performed using Mascot software (www.matrixscience.com) by searching the IPIhuman database (version 3.24, downloaded from ftp://ftp.ebi.ac.uk/pub/databases/IPI/current) using the following settings: fully tryptic peptides, peptide tolerance 0.8 Da, MS/MS tolerance 0.9 Da, 1 missed cleavage allowed, carbamidomethyl (Cys) and oxidation (Met) as fixed and variable modification, respectively. The Scaffold software package (www.proteomesoftware.com) was used to parse the data and to filter peptides at a confidence level of 95%, allowing only protein identification with at least 2 peptides identified.

[2] = molecular target: T2, human mitochondrial HSP60 (Homo sapiens, UniProt P10809); assay: ELISA: binding of HSP60 to immobilized (misfolded) protein ligands
T2 construct: Dr. W. van Eden, Utrecht University; host or cells: E. coli
Method: Recombinant human HSP60 with N-terminal His-tag was a kind gift of Dr. R. van der Zee and Prof. Dr. W. van Eden (Institute of Infectious Diseases and Immunology, Faculty of Veterinary Medicine, Utrecht University, Utrecht, The Netherlands), and was supplied in lyophilized form. The HSP60 was produced in E. coli and purified using Nickel-Sepharose. The HSP60 was lyophilized from 20-40 mM ammonium-bicarbonate solution, after purification, and stored at −20° C. The construct lacks the mitochondrial signal sequence. […] Before use, the lyophilized protein is dissolved at room temperature at 1 mg/ml in 20-40 mM NH4HCO3, resulting in a pH of 7.0. Aliquots are stored at −20° C. or −80° C. The mitochondrial HSP60 is a functional dimer of heptamers (MW(HSP60 monomer)=˜58 kDa), and is involved in multimer protein assembling and aids in transport of unfolded proteins across membranes. For the binding studies, at two occasions separate HSP60 solutions were prepared originating from the same batch of purified protein, lyophilized in separate Eppendorf cups.
Binding of chaperones to immobilized (misfolded) protein ligands was determined using an enzyme linked immuno sorbent assay (ELISA) approach. […] After 5 washes with wash buffer followed by two washes with PBS, binding of antibodies was assessed. […] Plates were read at 450 nm. […]

[3] = molecular target: T3, human BiP (Homo sapiens, UniProt P11021); assay: ELISA: binding of BiP-FLAG-His to immobilized (misfolded) protein ligands; settings: ligands coated at 5 μg/ml; 6BB peptides and oxLDL 50 μg/ml
T3 construct: The human BiP gene except the signal peptide encoding region was obtained from Geneart (Germany); linker […]; made in house; host or cells: HEK 293E cells, transient transfection, PABC674 vector; secreted into the medium
Method: Enzyme Linked Immunosorbent Assay for Testing of Chaperone Binding to Misfolded Proteins
Binding of chaperones to immobilized (misfolded) protein ligands was determined using an enzyme linked immuno sorbent assay (ELISA) approach. For this purpose 50 μl/well of potential ligands at indicated concentrations or coat buffer only for control and background measurement purposes, were coated overnight at 4° C. or coated for 1 h at room temperature, with motion, in 50 mM NaHCO3 pH 9.6 (coat buffer). In general, ligands were coated at 5 μg/ml, unless stated otherwise. For example, BiP binding peptides 6BB# and oxLDL were coated at 50 μg/ml. Native haemoglobin (Sigma-Aldrich, H7379), albumin, IgIV Gammagard and ovalbumin controls were prepared from lyophilized stocks. The controls were prepared by dissolving lyophilized proteins at 1 mg/ml in PBS upon resuspending by pipetting, followed by a 30 minutes period at the roller device, at room temperature. The protein solutions were centrifuged for 10 minutes at 16,000*g and diluted in coat buffer. […] After 5 washes with wash buffer followed by two washes with PBS, binding of antibodies was assessed. […] Plates were read at 450 nm. Triplicates were averaged and standard deviations calculated. […] Subsequently, sub-optimal concentrations of chaperones for binding to misfolded protein ligands are determined, and these concentrations are used for inhibition studies. […]

T3 sequence (P11021 19-654): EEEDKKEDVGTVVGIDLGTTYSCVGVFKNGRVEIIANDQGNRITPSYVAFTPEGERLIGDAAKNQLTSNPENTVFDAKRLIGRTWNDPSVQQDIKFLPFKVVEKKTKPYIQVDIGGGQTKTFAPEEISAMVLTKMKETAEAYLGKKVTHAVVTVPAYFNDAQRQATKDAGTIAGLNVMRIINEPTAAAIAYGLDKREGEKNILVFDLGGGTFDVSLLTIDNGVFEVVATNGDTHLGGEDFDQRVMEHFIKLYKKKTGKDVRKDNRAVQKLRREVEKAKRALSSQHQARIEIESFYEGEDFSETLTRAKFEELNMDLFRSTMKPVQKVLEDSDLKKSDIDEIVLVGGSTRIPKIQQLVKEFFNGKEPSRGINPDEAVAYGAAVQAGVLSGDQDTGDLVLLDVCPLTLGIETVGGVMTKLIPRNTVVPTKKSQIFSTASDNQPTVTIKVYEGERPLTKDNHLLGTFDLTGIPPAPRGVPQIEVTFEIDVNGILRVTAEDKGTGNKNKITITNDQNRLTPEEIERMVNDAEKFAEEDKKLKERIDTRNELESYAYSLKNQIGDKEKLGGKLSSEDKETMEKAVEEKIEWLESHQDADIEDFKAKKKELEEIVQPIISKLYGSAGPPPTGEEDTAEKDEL
T1 sequence (P11021 19-654): as above
T2 sequence (P10809 27-573): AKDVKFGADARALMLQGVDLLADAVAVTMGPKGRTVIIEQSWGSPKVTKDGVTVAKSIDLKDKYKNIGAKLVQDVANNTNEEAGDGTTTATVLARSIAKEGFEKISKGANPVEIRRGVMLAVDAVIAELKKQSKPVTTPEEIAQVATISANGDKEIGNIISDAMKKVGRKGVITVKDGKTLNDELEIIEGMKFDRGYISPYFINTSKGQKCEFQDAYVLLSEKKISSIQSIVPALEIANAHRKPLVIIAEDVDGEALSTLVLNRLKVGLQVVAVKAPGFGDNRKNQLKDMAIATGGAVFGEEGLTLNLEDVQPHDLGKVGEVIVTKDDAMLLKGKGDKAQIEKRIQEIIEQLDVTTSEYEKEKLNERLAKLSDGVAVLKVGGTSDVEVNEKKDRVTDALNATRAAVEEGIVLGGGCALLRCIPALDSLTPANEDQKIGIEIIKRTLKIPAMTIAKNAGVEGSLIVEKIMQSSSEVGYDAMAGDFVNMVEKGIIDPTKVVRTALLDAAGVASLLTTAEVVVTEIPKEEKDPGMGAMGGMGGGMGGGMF

| Molecule | # of peptides in sample A# [1] | Binding of concentration series of HSP60 to coated ligand [2] | Binding of concentration series of BiP to coated ligand [3] |
| --- | --- | --- | --- |
| B1 | 1 |  |  |
| B2 |  | did not bind | did not bind |

From patent publication US20100015126A1, “Methods of Binding of Cross-Beta Structures By Chaperones” (priority 2006, published 2010)
